System: Escherichia coli TOP10
Experiment: shrunken log2 fold change of peptide-encoding DNA abundance (4.5 h post-induction vs induction); higher = less antimicrobial activity (less host growth inhibition)
Details: time post-induction: 4.5 h; library: site-saturation at positions 5, 18, 19, 20
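Also: peptides expressed intracellularly from a pBAD plasmid library in pooled LB shake-flask culture, induced with 0.3% L-arabinose, DNA abundance read by NGS, three biological replicates, DESeq2 with apeglm shrinkage.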

Row | Sequence | shrunken log2 fold change
1 | RRIRWRPPRLPRPRPRPELQPRP | 0.326
2 | RRIRLRPPRLPRPRPRPPVEPRP | 0.638
3 | RRIRMRPPRLPRPRPRPPHYPRP | 0.728
4 | RRIRWRPPRLPRPRPRPYHGPRP | -0.327
5 | RRIRHRPPRLPRPRPRPRDPPRP | -0.153
6 | RRIRERPPRLPRPRPRPGPYPRP | -0.208
7 | RRIRPRPPRLPRPRPRPMMCPRP | -0.147
8 | RRIRIRPPRLPRPRPRPVFEPRP | 0.0673
9 | RRIRVRPPRLPRPRPRPWFEPRP | -0.313
10 | RRIRKRPPRLPRPRPRPLIMPRP | -0.376
11 | RRIRHRPPRLPRPRPRPNCSPRP | 0.0841
12 | RRIRHRPPRLPRPRPRPQARPRP | 0.225
13 | RRIRFRPPRLPRPRPRPQYHPRP | -1.15
14 | RRIRMRPPRLPRPRPRPKHQPRP | 0.634
15 | RRIRHRPPRLPRPRPRPKDQPRP | -0.172
16 | RRIRERPPRLPRPRPRPYESPRP | -0.0018
17 | RRIRERPPRLPRPRPRPKFNPRP | -0.558
18 | RRIRFRPPRLPRPRPRPLMEPRP | -0.00741
19 | RRIRLRPPRLPRPRPRPSFRPRP | -0.358
20 | RRIRHRPPRLPRPRPRPSSRPRP | -0.175
21 | RRIRVRPPRLPRPRPRPSIVPRP | -0.364
22 | RRIRERPPRLPRPRPRPSRSPRP | 0.116

Row | Sequence | shrunken log2 fold change
23 | RRIRCRPPRLPRPRPRPFKRPRP | -0.219
24 | RRIRWRPPRLPRPRPRPTWRPRP | 0.609
25 | RRIRMRPPRLPRPRPRPADYPRP | 0.0259
26 | RRIRYRPPRLPRPRPRPDLNPRP | -0.0755
27 | RRIRHRPPRLPRPRPRPGQYPRP | -0.0767
28 | RRIRKRPPRLPRPRPRPKASPRP | 0.0517
29 | RRIRTRPPRLPRPRPRPFRFPRP | -0.00476
30 | RRIRTRPPRLPRPRPRPPVMPRP | -0.113
31 | RRIRRRPPRLPRPRPRPAMWPRP | 0.451
32 | RRIRGRPPRLPRPRPRPISAPRP | 0.363
33 | RRIRARPPRLPRPRPRPDTMPRP | 0.0783
34 | RRIRERPPRLPRPRPRPRMEPRP | -0.00684
35 | RRIRRRPPRLPRPRPRPYWGPRP | 0.133
36 | RRIRERPPRLPRPRPRPNKPPRP | -0.0937
37 | RRIRWRPPRLPRPRPRPRRGPRP | 0.528
38 | RRIRCRPPRLPRPRPRPMVDPRP | 0.02
39 | RRIRKRPPRLPRPRPRPQSEPRP | 0.0585
40 | RRIRIRPPRLPRPRPRPIRGPRP | -0.0199
41 | RRIRGRPPRLPRPRPRPYDTPRP | -0.0956
42 | RRIRMRPPRLPRPRPRPHYYPRP | -0.061
43 | RRIRKRPPRLPRPRPRPQASPRP | 0.353
44 | RRIRGRPPRLPRPRPRPWEPPRP | 0.177

Row | Sequence | shrunken log2 fold change
45 | RRIRQRPPRLPRPRPRPHSLPRP | 0.178
46 | RRIRKRPPRLPRPRPRPRRKPRP | 0.969
47 | RRIRNRPPRLPRPRPRPWMDPRP | -0.165
48 | RRIRRRPPRLPRPRPRPYIYPRP | -0.268
49 | RRIRMRPPRLPRPRPRPAKGPRP | 0.271
50 | RRIRRRPPRLPRPRPRPINVPRP | -0.326
51 | RRIRKRPPRLPRPRPRPPRVPRP | 0.648
52 | RRIRERPPRLPRPRPRPTRRPRP | 0.059
53 | RRIRKRPPRLPRPRPRPLEKPRP | 0.219
54 | RRIRQRPPRLPRPRPRPDQYPRP | -0.0114
55 | RRIRQRPPRLPRPRPRPYIRPRP | -0.197
56 | RRIRSRPPRLPRPRPRPGEKPRP | -0.000687
57 | RRIRKRPPRLPRPRPRPDLKPRP | 0.131
58 | RRIRTRPPRLPRPRPRPVGPPRP | -0.006
59 | RRIRMRPPRLPRPRPRPRTWPRP | 1.11
60 | RRIRTRPPRLPRPRPRPWRKPRP | -0.262
61 | RRIRRRPPRLPRPRPRPIRRPRP | -0.0312
62 | RRIRERPPRLPRPRPRPHRNPRP | -0.869
63 | RRIRTRPPRLPRPRPRPHAVPRP | 0.0205
64 | RRIRRRPPRLPRPRPRPKYHPRP | -0.153
65 | RRIRLRPPRLPRPRPRPSITPRP | -0.436
66 | RRIRYRPPRLPRPRPRPHYEPRP | -1.49

Row | Sequence | shrunken log2 fold change
67 | RRIRGRPPRLPRPRPRPTYTPRP | 0.249
68 | RRIRYRPPRLPRPRPRPWTCPRP | -0.362
69 | RRIRGRPPRLPRPRPRPYWMPRP | -0.34
70 | RRIRCRPPRLPRPRPRPRCNPRP | 0.00442
71 | RRIRRRPPRLPRPRPRPDQDPRP | -0.0033
72 | RRIRVRPPRLPRPRPRPLWYPRP | -0.263
73 | RRIRIRPPRLPRPRPRPMGDPRP | -0.114
74 | RRIRQRPPRLPRPRPRPECCPRP | 0.267
75 | RRIRMRPPRLPRPRPRPSETPRP | 0.814
76 | RRIRERPPRLPRPRPRPSHSPRP | -1.37
77 | RRIRIRPPRLPRPRPRPMNAPRP | -0.0262
78 | RRIRVRPPRLPRPRPRPIYVPRP | -0.0279
79 | RRIRRRPPRLPRPRPRPRVAPRP | 0.875
80 | RRIRRRPPRLPRPRPRPDNCPRP | -0.113
81 | RRIRRRPPRLPRPRPRPFPQPRP | 0.441
82 | RRIRNRPPRLPRPRPRPIGGPRP | -0.00925
83 | RRIRVRPPRLPRPRPRPGHIPRP | -0.028
84 | RRIRFRPPRLPRPRPRPRQWPRP | 0.39
85 | RRIRDRPPRLPRPRPRPQFMPRP | 1.04
86 | RRIRHRPPRLPRPRPRPQYWPRP | -0.806
87 | RRIRWRPPRLPRPRPRPLKHPRP | -0.623
88 | RRIRGRPPRLPRPRPRPHIGPRP | 0.109

Row | Sequence | shrunken log2 fold change
89 | RRIRFRPPRLPRPRPRPANPPRP | -0.156
90 | RRIRARPPRLPRPRPRPHGHPRP | 0.125
91 | RRIRIRPPRLPRPRPRPVCDPRP | -0.372
92 | RRIRHRPPRLPRPRPRPAVEPRP | -0.0419
93 | RRIRHRPPRLPRPRPRPHPIPRP | -0.107
94 | RRIRIRPPRLPRPRPRPLPAPRP | 0.041
95 | RRIRFRPPRLPRPRPRPGAVPRP | 0.223
96 | RRIRMRPPRLPRPRPRPGNKPRP | -0.0821
97 | RRIRQRPPRLPRPRPRPVKDPRP | -0.03
98 | RRIRTRPPRLPRPRPRPMTIPRP | -0.137
99 | RRIRYRPPRLPRPRPRPHCFPRP | -0.165
100 | RRIRIRPPRLPRPRPRPNVYPRP | -0.228
101 | RRIRLRPPRLPRPRPRPRAHPRP | 0.244
102 | RRIRNRPPRLPRPRPRPYMLPRP | -0.14
103 | RRIRVRPPRLPRPRPRPKTGPRP | -0.048
104 | RRIRLRPPRLPRPRPRPVSQPRP | 0.0349
105 | RRIRGRPPRLPRPRPRPTMYPRP | 0.032
106 | RRIRSRPPRLPRPRPRPYTLPRP | -0.146
107 | RRIRHRPPRLPRPRPRPCWQPRP | -0.065
108 | RRIRQRPPRLPRPRPRPRNRPRP | 0.0911
109 | RRIRARPPRLPRPRPRPPKGPRP | 0.654

— the supplement of paper PMC9112550, “Optimization of the antimicrobial peptide Bac7 by deep mutational scanning” (BMC Biology, 2022)
